According to patent US12091680B2, “Method for differentiation induction in cultured stem cells” (RIKEN, priority 2009, dated 2024):

Test system: Rx-GFP ES cells
Assay: SFEBq culture with purified laminin/entactin and Nodal/Activin, formation of RxGFP+ vesicles and cup structures (Example 6)
Format: cell-based, mouse
Conditions: for replacement of the retinal inducing activity of Nodal: 1000 ng/ml; for replacement of the retinal inducing activity of Nodal / appearance of Rx-GFP+ epithelia in SFEBq aggregates / morphology of Rx-GFP+ epithelia: combined with laminin+entactin; for appearance of Rx-GFP+ epithelia in SFEBq aggregates / morphology of Rx-GFP+ epithelia: treatment days 1-7; for appearance of Rx-GFP+ epithelia in SFEBq aggregates: Nodal 500 and 1000 ng/ml, Activin 250 ng/ml, read on day 7; for morphology of Rx-GFP+ epithelia: day 7 and day 10; for effect on neural (Sox1) and retinal (Rx) differentiation: treatment of SFEBq cells from day 0
Method: Rx-GFP ES cells (3000 cells/well, 96-well plate) were cultured in SFEBq culture with G-MEM supplemented with 1.5% KSR. In this experiment, instead of adding Matrigel to culture, purified laminin and entactin (High concentration Laminin/Entactin complex; BD; 120 μg/ml) were added as extracellular matrix proteins on day 1 (24 hours after the onset of differentiation culture). Recombinant Mouse Nodal (R&D; 500-1000 ng/mL) or Human Activin (R&D; 250 ng/ml) was also added on day 1 and the Nodal treatment was continued until day 7. SFEBq aggregates were cultured for 7-10 days and the formation of RxGFP+ vesicles and cup structures were examined under a fluorescent microscope. Nodal and Activin are known to act on common cell surface receptors and activate Smad2/3 signals in the cell.

Molecule	replacement of the retinal inducing activity of Nodal	appearance of Rx-GFP+ epithelia in SFEBq aggregates	morphology of Rx-GFP+ epithelia	effect on neural (Sox1) and retinal (Rx) differentiation
TGF-beta1: growth factor tested at 1000 ng/ml in place of Nodal	did not replace the inducing activity of Nodal	–	–	–
Activin: Human Activin (R&D); acts on cell surface receptors common with Nodal and activates Smad2/3 signals (protein, UniProt P08476 311-426, looked up) Inhibin beta A chain: GLECDGKVNICCKKQFFVSFKDIGWNDWIIAPSGYHANYCEGECPSHIAGTSGSSLSFHSTVINHYRMRGHSPFANLKSCCVPTKLRPMSMLYYDDGQNIIKKDIQNMIVEECGCS	–	large patches of Rx-GFP+ epithelia appeared	formed optic vesicle-like sacs on day 7 and later exhibited the optic cup-like morphology on day 10	inhibited both neural (Sox1) and retinal (Rx) differentiation
Nodal: Recombinant Mouse Nodal (R&D); acts on cell surface receptors common with Activin and activates Smad2/3 signals (protein, UniProt P43021 245-354, looked up) Nodal: HHLPDRSQLCRRVKFQVDFNLIGWGSWIIYPKQYNAYRCEGECPNPVGEEFHPTNHAYIQSLLKRYQPHRVPSTCCAPVKTKPLSMLYVDNGRVLLEHHKDMIVEECGCL	–	large patches of Rx-GFP+ epithelia appeared	formed optic vesicle-like sacs on day 7 and later exhibited the optic cup-like morphology on day 10	inhibited both neural (Sox1) and retinal (Rx) differentiation
TGF-beta2: growth factor tested at 1000 ng/ml in place of Nodal; printed as 'TGF-beta1 or 2' (protein, UniProt P61812 303-414, looked up) Transforming growth factor …: ALDAAYCFRNVQDNCCLRPLYIDFKRDLGWKWIHEPKGYNANFCAGACPYLWSSDTQHSRVLSLYNTINPEASASPCCVSQDLEPLTILYYIGKTPKIEQLSNMIVKSCKCS	did not replace the inducing activity of Nodal	–	–	–
